Source: the supplement of paper PMC12636428

Test system: Saccharomyces cerevisiae
Test: transcriptional activation domain activity (GFP:mCherry ratio, weighted mean of sorted bins, harmonized to initial dataset scale) (arbitrary fluorescence ratio units); higher = stronger transcriptional activation
Conditions: beta-estradiol 1 µM; induction time 4 h
Method in brief: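 Barcoded protein tiles fused to an estradiol-inducible synthetic transcription factor were integrated at the yeast URA3 locus, in diploids carrying a GFP reporter. Cultures were diluted 1:5 into SC with 1 uM beta-estradiol, held 4 hours at 30 °C, sorted into 8 bins by GFP:mCherry ratio, and barcodes sequenced. Tiles under 50 reads were discarded. Activation activity is the read-weighted mean of bin median fluorescence, averaged across barcodes, then linearly mapped onto the initial dataset scale.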

Row | Sequence | transcriptional activation domain activity
1 | SLFLSFFIFPLFLFFYFFSFFFDLFIVCMVHLFLGKDLYLFGYQKVLFCFCLC | 65700
2 | LCREVIIGGILGGILVFLVISLFFLIGHFFLFFVVLFLLLFNTTLCSLLVEVL | 18900
3 | MSPRAFFPPWFDFVHAFLVYALVARRLRLLFLPTHLAMHCTHLSLSLTLLFLL | 60500
4 | IWCRKCNLGSILYVLARYGTLNCLLVSSLSLVTGFVVNMIFHIILGLLLARAY | 65100
5 | MVLVLLWTVEPFIFLFNLLLLILLMVWLPLILLFKLLFLNNITFLSFMIPNQL | 45000
6 | SSTWFEPLENIISSASSSSIGSPIEDQFISSNNEESALFPTDQFFSNPSSYSH | 84600
7 | SKMLTEFKQKLRLDYFMLLDLRLWKDMRMCLRKMFISTLVANLSYKRILGVRF | 73200
8 | QMLNPLEKILLSLASIVLSSRVSRNLFVLYALGLHFIVLFTLYSVVYVFIFCS | 37500
9 | VGLKWGMGRDKSFSFTSKLNNPQFLGSLDLEILEELEKLISAQEFSRNFTEDV | 70100
10 | FFLVLIYCPFPSFGPDLSLPFPSPFLSLHLLITILLSPLSPFYLFLFYFTSPS | 84300
11 | MLLLPFIPSYLTFFLIFLFVLFDFHFWFLFLFGLTFSCCCWTLSFCKTSLIWF | 57700
12 | YPVGKQVLARYPETTTFYRAEVMGTKRDGTCRLKFEGEEEVGKETEVERRLVL | 77100
13 | PVKPASKKPAEKAKEKAKEAPKEKAKAKEPAKAKEDKPKAKPASKKAAAKPAA | 34700
14 | YAASSASPAPPRKYPPARKASPSPSPTPPRTRKSSASALRRPASTPTPPAPSP | 23200
15 | SFILLFFYSFILLFFYSFILLFFWFFFCLWILIFSLFYSTIIITIKKRKAHTY | 59300
16 | ESGWIYVSVTTFFTSIALLGVMIACMVLRTHLFIWTVFSPKYLYSMAWSLGQH | 55900
17 | MFYFLLLYQSIVFLPYIFFSQFLIWVWCGLGREPGWHLEHGVYRYRWVRILSI | 39300
18 | ASLHCLRSSPSSSSPCAARERSSSRARTSSSMCPIAPTHKPRSSTGSPARGTP | 19900
19 | SVEVEMEDAPKPKRRGRPPGSGKKKAPAGEDAAAAAPEKKKRTPAKKASAGSA | 42700
20 | VNKSGSTYGEELSPKLDSSLVNDTTSLLLPQQPVFVSENVGSEFSSLNEFLSM | 108000
21 | GLMGALGFRMLFGVPCLPFFALHWFLWLVNDYILYCVLVQTNRISSIHFLRAW | 41200

Row | Sequence | transcriptional activation domain activity
22 | MCLLCHATLFSSCPYFSIFLVFSFFSFFSLFFFTSFLSLLLFMSLLPTYYHLY | 43500
23 | TTAATEPTKTEAAPPAPATEPAPAAEPAAPAAEPAKEEAKPATEVKPEAPAAA | 24800
24 | GDAEPSSKGGEDSSGGEGSADEEKPKAKPAKAKSKSSSSKEPVKKKAKKEKKD | 21400
25 | CTVVFLACTVVYGFMVVTSLLFHLSGFLFHVTTTFPFFFFFFFTLLFFLLHTF | 38000
26 | SAPAPVRVVSLTKEEPVPEVKEEVKEEVKPAPAAAAPKPKPAAAKKETPAAVK | 13400
27 | TKPAPKKAGGRPKKVVAEPEPAAEPSESEEPKLAPKRAGGRPKKVVAPVAEPE | 19400
28 | AWWIGLSGGLYGCITLMPIFFHDSPYYAPLSFTAWFLYMESFWYLPFLDLCYL | 46000
29 | DSSEVQRKKRRDSRKSKKESKSSSRRKDRSKDRSGRSKQRESKKKDRRRARSE | < 6570
30 | PELGRIVRWKWFEWTAKALFIQLYSWSLQAFLFSVGWFNRFLVRKDIVLQIIM | 51900
31 | LLLYLLQLVQALKYEHISTEANRDATQKSSLARFLIARAVDSFMLGNYFYWYL | 59400
32 | WRILLIVHLFGPFSLVDELLLPFKSSTSIFLFGILYIYCLFVLFLAYMILSIL | 32600
33 | FQFPIDFTNDFSDGFSLDADIGQFMDPLLLTSFLPSPIPFDDGTELSSLELLH | 167000
34 | MGPWICQTQPTSYLILSGLVHSFLKSSQGFISYIFSTLVHMTFLVFLYIHLFR | 58800
35 | GGSKRDREDSRKGGKTSSRGGRLTEDGPSSSHTKKPRKGKKGEEAKEGGEKSS | 25100
36 | MGDCIKVHVSFHCRFLVFIYTHTFFLFLFYSSSIVFCFIYIYIFPFISFFWGL | 36000
37 | MYYLYLSFCFLIVFFFFFFPLYCCCRLLFFSSSFVLFLSVLIILIPTFHAFFP | 67800
38 | FDETIIQLRKTVLSCSTCCSIALKWFAEHEYALVGLLLRCLHMKVRSQIRAFL | 44000
39 | MFVLYTSGWESLHFFFPSPLVSFVLCWVLTRSLYRFLEVWVAYSVCLLLFLHV | 38600
40 | PYIAYPLKPCLSGPLCELYPSTSNLWAMCLHLILVCIQVPFLLSTPFWLLLPL | 74200
41 | KAKAGADGDAAPKKKKAASKKDSNGSDAEDSDGEAKPKPKLKKKAAAAGKAKA | 29400
42 | GRQSKDGKEGKEGKEGSGERRREEKKEAGRERGGEEGGKEGRGRQRAGASGGE | 25500

Row | Sequence | transcriptional activation domain activity
43 | DESINGSEMPDFSLDLVSNDRQTGLEALDYDIHNYFPQHSERLTAEKIDTSAC | 76700
44 | IHEPDQPLFSSFFSFFFVSFLSLIPPPLFPSSFPFLLFLPFLPPSLSLLSLIF | 35500
45 | RCWFILLYVMPNIAGTFGLRYVPLQNHVARLWCYYLTGPYNASFVLTLSLVIA | 37400
46 | TPDSLCEAVTDLVRDIWYPLMTWMEFANPASGYISLDAPLFRAVLSLFHHFFA | 42900
47 | MLTWFFSYRLELLPFFYIIFSPIVFLLFSIFLLVLLRSFVCRLICFCLFLQSV | 56500
48 | MLMIVVNDTIFYITVISHILLAYYGLVTIDNGLLLSNPTWYCPLNYTLIATCI | 61700
49 | MCLYRYYGFRIFLCLVVVLGDLFLGYLKLYVYIYNTVLVYWGEISISLLLVYI | 71900
50 | SNARGSDPSSYAIEGEYKTLATDDLGNILNLNYGETNEVIMNEINDLNLPLGP | 112000
51 | RKIVNEPREYLHAGNVKDNQGARQKKRRVGRGLGSGLGKTSGRGQKGWKARAP | 37000
52 | FDTLLSFLLFSLSLIFFLSFLPLFCQRYFFSSFLNLVFLAFWLCCYCCCCSRG | 31700
53 | MYFCLDKLRRLACFLSLFFVSFFLFLCLTLFFALLFIISLSLLMYRCVLISLC | 14000
54 | RSSSGKDRDRERDGGRDRNGKSSSSSRRREKERDEDSGDERRKSSSSSRRRRD | 44400
55 | WGFRVMSQLPTFWYRTEYFWIDYPHWDMKPELKRYYLMQMAYWLQQLIVLVLG | 92400
56 | SGFRDNRKDNRGRGRDRGNRRDNRGNDRNREREDKEKAESKDVKSEDAPVKTE | 28100
57 | LFLMVAPYPSLLIVLVNHYLRTLDKPIAFVIHFLVIFTLKFLAFISLIVCVAR | 75600
58 | GKGKPRDNAKEEEKEEERKIPQAIVVSGLHHASTAAQLALSSALREGEIEMDG | 15000
59 | DDERERKRAKGDKDEECHKEPKRSARDKQEESSTTRNSRQSKKPKTAAQPEAK | 7230
60 | MLMTKYMCKGSRLIFIFFCVFRLSMLFTFFSIVSDSCLYWCRVISYLVLLMTL | 63700
61 | GCLLPVTSCVFLAPFTLDFLWIPFLTHYLIILLCWYHLFSLRLLFCCSKSLPT | 57200
62 | TIDSSGVVLTPDPLSFDIGNFDSFSTSLYGFWPLTNAFDFTPYNSGSLAWLLL | 99800
63 | MDNIRSKHNHLLTAGWIYAFIDFWCITLRHFLIFIASMLFYGYLCIWCPTILV | 59000

Row | Sequence | transcriptional activation domain activity
64 | AAAPAAAANDGTTKKKGKGQKATRSPKGKGKSKKKGKGAAAAAAAPAAAKAVS | 14600
65 | EYMGKETGSHHLGREGEEKTYAVRRDYESRNRVALTPERNAVEIVRVRTQAAP | 19700
66 | GEKEASGENTSNGTTATTVKPSSSSDEEKAAKKENKEAATTTNNGIKNSATAS | 30300
67 | YAEWLLQPEQHNGTWVADVLWPAINLDLQWISQHWNESSWDLWWSPVWAGSYW | 66400
68 | SSSSSSREDGEASDASSSSRDSRRRRRRSTSRDKRPAAESKAATEPAAAKPRN | 30000
69 | MAWAYGSCLCRCCFFFASLWQFLFFVFGFLPFWPFFGFLLFISVVLPPSSLFL | 46100
70 | KHYRRRLLQRDILKRKRWSIGLKTLVLLRDLGVFVHHHTVVKALQMQFIVLFG | 57200
71 | MIVMNQPNYIFDEFAIIISVYISSISNLAFYFGYDFLVLLFLQNLLEFIIMCY | 76800
72 | LSFLLSFPLPLIPHVLPSLFPCPLFLPLFPPSLPLSPFPPLPLFPPSPFFPLS | 62300
73 | MVVLTICQLHHWNAGWDFHLLFWVCLFYSVKKLYDLILWLNFILTSKDLVKSN | 40600
74 | MFFLFFLLVSWWLCYLLLMASSFLIVGGMYLLALCPPLGCIGDLVVPFYFLFL | 81700
75 | RTTSLGVWFLLIQSLWYCAFGVLYVWFFCQTFESFNTLLVLDYILRFILCLMF | 86900
76 | VRYHVKNSPISGWVYEAKHVSDILATNTLLARIVIAKVQDEQRLVHLLQCLPI | 68800
77 | MEEPSGDASRRRNGPRLYHKKSRLGCIRCKQRRVKCDEKRPACTGCSRHAVEC | 60500
78 | RISPGFIKKRRSSQTRQDEDHWQRVRELENQSSLYYLPIHEETPFFIDLIPNG | 76200
79 | MRAAMDICVLIKMPCPLLKHTPFFTCAVTMAAVVYLSYWSFIATETGDDVIRE | 46700
80 | KSKSSRSSRRREGEEDDDRRRRRHRHRSRSRSRSRGRGGGSDDGSKEQRRSSR | 40100
81 | RGGGRADQGRRKSPARARSASASSQSSSRSRSASRDSDQSNRRSKATSPGGRG | 32500
82 | KQTRAGQRTRFRAVVIVGDSNGHVGLGVKTSKEVATAIRAAIVIAKLNVIPVR | 64200
83 | IGGFLGCLLMGHICLIILVFLCQTLVYREVTRLFTLMDSKPTLNWYFFATANY | 53000
